Measured values reported in patent US12618044B2, “Specification of functional cranial placode derivatives from human pluripotent stem cells” (MEMORIAL SLOAN-KETTERING CANCER CENTER, priority 2013, dated 2026).

Tests used:
Format in all cases: cell-based, human
hESC [1] = test: Real-Time PCR of pluripotency and germ layer markers in treated hESC
Method: There is also evidence for suppression of alternative embryonic germ layers such as Noggin-mediated suppression of SOX17 (endodermal lineage) and SB431542-mediated suppression of Brachyury (mesodermal lineage) (FIG. 1C).
Total RNA was extracted using an RNeasy kit (Qiagen). For each sample, 1 ug of total RNA was treated for DNA contamination and reverse transcribed using the Quantitect RT kit (Qiagen). Amplified material was detected using Quantitect SYBR green probes and PCR kit (Qiagen) on a Mastercycler RealPlex2 (Eppendorf). Results were normalized to a HPRT control and are from 4-6 technical replicates of 2-3 independent biological samples at each data point.

hESC [2] = test: Floor plate induction from hESC (FOXA2 expression); settings: for FP competency / FOXA2 induction: added to neural rosette stage cells
Method: (§1) For MS5 induction, established methods previously reported were used (Perrier et al., 2004). Feeder free neural induction was carried out as previously described (Chambers et al., 2009). Briefly, hESCs cultures were disaggregated using accutase for 20 minutes, washed using hESCs media and pre-plated on gelatin for 1 hour at 37° C. in the presence of ROCK inhibitor to remove MEFs. The nonadherent hESCs were washed and plated on matrigel at a density of 20,000 cells/cm2 on matrigel (BD) coated dishes in MEF conditioned hESCs media (CM) spiked with 10 ng/mL of FGF-2 and ROCK-inhibitor. The ROCK inhibitor was withdrawn, and hESCs were allowed to expand in CM for 3 days or until they were nearly confluent. The initial differentiation media conditions included knock out serum replacement (KSR) media with […] TGF-b inhibitor (SB431542, Tocris) and 500 ng/mL of Noggin (R&D). Upon day 5 of differentiation, increasing amounts of N2 media (25%, 50%, 75%) was added to the KSR media every two days while maintaining 500 ng/mL of Noggin and TGF-b inhibitor. For FP induction, Sonic C25II was added at 200 ng/ml. In some experiments, DKK-1 (R&D 100 ng/ml) FGF8 (R&D 50 ng/ml), Wnt-1 (Peprotech 50 ng/ml) and Retinoic Acid (R&D 1 uM) were added.
Tissue was fixed using 4% paraformaldehyde and Picric acid for 15 minutes, washed with PBS, permeabalized using 0.3% Triton X in PBS, and blocked using 10% Donkey Serum. Primary antibodies used for microscopy included PAX6 (Covance), TUJ1 (Covance), ZO1 (Zymed), BF1 (FOXG1, gift E.Lai), TH (Pelfreez), NKX6.1 (DSHB) and FOXA2 (SantaCruz).
Based on the hypothesis that FP specification in the mouse occurs at early developmental stages, at the time of or prior to neural induction, the inventors repeated SHH induction studies at Day 9, the time of rosette specification, using classic stromal-feeder mediated neural induction protocols (Elkabetz et al., 2008). Under this paradigm the inventors noticed a drastic change in cell morphology restricted to the cells treated with SHH-C25II (FIG. 15B). […] In addition to decreased expression of BF1 the inventors also observed decreased expression of PAX6, another maker expressed in the AN (FIG. 1E). […] The inventors performed dose response studies to understand how FP marker induction compared to that of NKX6.1 expression; a gene known to respond to lower concentrations of SHH. […] At higher concentrations FP markers rapidly rise, while NKX6.1 expression tapers off (FIG. 15G).
Using this protocol, in combination with compositions and methods of the present inventions, the inventors aimed to optimize FP differentiation by adding Sonic C25II at different time points during neural induction and assaying for FOXA2 expression. Differentiation was initiated upon NSB exposure, and Sonic C25II was added at Day 1, Day 3, Day 5, or Day 7 (FIG. 16A). […] Furthermore, the differentiation conditions establish a robust platform for inducing human FOXA2+ cells in vitro.

hESC [3] = test: Placode induction from hESC (N-SB versus PIP, SIX1 expression); settings: pre-placode cells
Method: A timed withdrawal of the BMP inhibitor Noggin during N-SB differentiation was also tested to determine if placodal fates could be induced via derepressing endogenous BMP signaling. A time course analysis was performed during which Noggin was removed at different time points of the N-SB protocol (FIG. 28A).
Withdrawal of the BMP inhibitor noggin during N-SB differentiation may enhance the emergence of placodal fates by de-repressing endogenous BMP signaling. To this end, a time course study was performed by removing noggin at different time points of the NSB protocol (FIG. 11A) while monitoring the induction of placodal marker (FIG. 11B) trophoectodermal, neurectodermal by qRT-PCR analysis at day 11 of differentiation. Withdrawal of noggin at day 2 or 3 of differentiation yielded efficient induction of Six1 while noggin withdrawal at day 1 of differentiation lead to the induction of Eya1 in the absence of Six1 expression.
Neural Induction and placode induction: Feeder-free neural induction was carried out as previously described (Chambers et al., 2009). Briefly, hESCs cultures were disaggregated using accutase for 20 minutes, washed using hESCs media and pre-plated on gelatin for 1 hour at 37° C. in the presence of ROCK inhibitor to remove MEFs. The non-adherent hESCs were washed and plated on matrigel at a density of 60,000 cells/cm2 on matrigel (BD) coated dishes in MEF conditioned hESCs media (CM) spiked with 10 ng/mL of FGF-2 and ROCK-inhibitor. The ROCK inhibitor was withdrawn after 24 hours, and hESCs were allowed to expand in CM for 2 days or until they were 95% confluent. The initial differentiation media conditions included knock out serum replacement (KSR) media with 10 μM TGF-β inhibitor (SB431542, Tocris) and 250 ng/mL of Noggin (R&D). Upon day 5 of differentiation, increasing amounts of N2 media (25%, 50%, and 75%) were added to the KSR media every two days while maintaining […] of Noggin and TGF-β inhibitor. Similar results could be obtained when using KSR-free conditions (E6 medium (Chen et al., 2011)) following adjustments in BMP signaling; data not shown). For placode induction, Noggin was removed at day3 of differentiation. In some experiments, BMP-4 (R&D 50 ng/ml), Noggin (R&D 250 ng/ml), DKK-1 (R&D 100 ng/ml), FGF8 (R&D 50 ng/ml), SU5402 (Tocris 10 μM), Wnt-3a (R&D 50 ng/ml), DAPT (Tocris, 10 μM), CHIR99021 (Stemgent, 3 μM), Cyclopamine (Tocris, 10 μM), Sonic Hedgehog (C25II-R&D 100 ng/ml), and Purmorphamine (Stemgent, 1 μM), were added.
Microscopy, antibodies, and flow cytometry: Cells were fixed using 4% paraformaldehyde for 15 minutes, washed with PBS, permeabilized using 0.3% Triton X in PBS, and blocked using 1% BSA. Primary antibodies used for microscopy included PAX6 (Covance, DSHB), TUJ1 (Covance), BRN3A (Chemicon), AP2a (DSHB), HNK1 (Sigma), PAX3 (DSHB), SIX1 (ABR, Atlas), ISL1 (DSHB), PERIPHERIN (Santa Cruz), GSU (gift A. McNeilly), CRYAB (Chemicon), DACH1 (Proteintech), EYA1 (gift Kawakami), E-CADHERIN (Abcam), FSH (gift A. McNeilly), GATA2 (Abcam), chick GFP (Abcam), hNCAM (Santa Cruz), GLUTAMATE (Sigma), KRT14 (Labvision), SIX6 (Atlas), LHX3 (Abcam), OVOL2 (Aviva), TFAP2A (DSHB), FOXG1 (gift E. Lai), hCA (Stem Cells), and Ki67 (Sigma). Appropriate Alexa 488, Alexa 568, Alexa 647 secondary antibodies (Molecular Probes) and/or DAPI counterstaining was used for visualization. For Flow Cytometry, cells were mechanically dissociated after exposure to accutase for 20 min at 25° C. To eliminate dead cell populations in FACS analysis, we used DAPI or 7-AAD according to manufacturer's recommendation. Cells were analyzed using FACScan (Becton Dickinson) and FlowJo software (Tree Star, Inc.).

hESC derived FP = test: A/P respecification of hESC derived FP by caudalizing factors
Method: as §1
The inventors contemplated the use of SIX6 as a putative marker of anterior FP identity. Thus SIX6 status of the hESC derived FP was used to mark respecification in response to known caudalizing agents such as FGF8, Wnt-1, and Retinoic Acid. Each of these caudalizing factors was added in combination with SHH and the resulting tissue was assessed for expression of the FP markers FOXA2 and NETRIN-1, the AN marker BF1, and putative anterior FP marker SIX6. FP generation was found not compromised in the presence of caudalizing factors.
The inventors discovered that different factors had varied effects on marker expression (FIG. 20C).
As mentioned above, studies had identified different enhancers that directed SHH expression to different A/P region along ventral axis (Jeong et al., 2008). […] In the absence of caudalizing factors (SHH C25II alone), LacZ expression was observed herein following transfection with the SBE2 but not the SBE1 enhancer supporting the hypothesis that hESC derived FP is anterior by default (FIG. 20D). In contrast SBE2 activity was abolished upon treatment with Wnt1 or FGF8 while SBE1 activity was induced under these conditions.

[4] = in combination with Sonic C25II

NC(=O)c1ccc(-c2nc(-c3ccc4c(c3)OCO4)c(-c3ccccn3)[nH]2)cc1 [SB431542, 4-[4-(1,3-benzodioxol-5-yl)-5-(2-pyridinyl)-1H-imidazol-2-yl]-benzamide]
Brachyury (mesodermal lineage) (hESC [1]): suppression
CDX2 expression (hESC [1]): dramatic increase
Nanog expression (hESC [1]): rapid loss

Noggin
CDX2 expression (hESC [1]): Suppression
SOX17 (endodermal lineage) (hESC [1]): suppression

O=C1Nc2cc(Br)ccc2/C1=C1/Nc2ccccc2/C1=N\O [BIO, reference compound]
FOXA2 expression (hESC [2]; added early, BIO 100 nM): increase
FP competency / FOXA2 induction (hESC [2]): not sufficient

B1: Wnt3A: WNT protein, caudalizing cue (protein, UniProt P56704 19-352, looked up)
Protein Wnt-3a: SYPIWWSLAVGPQYSSLGSQPILCASIPGLVPKQLRFCRNYVEIMPSVAEGIKIGIQECQHQFRGRRWNCTTVHDSLAIFGPVLDKATRESAFVHAIASAGVAFAVTRSCAEGTAAICGCSSRHQGSPGKGWKWGGCSEDIEFGGMVSREFADARENRPDARSAMNRHNNEAGRQAIASHMHLKCKCHGLSGSCEVKTCWWSQPDFRAIGDFLKDKYDSASEMVVEKHRESRGWVETLRPRYTYFKVPTERDLVYYEASPNFCEPNPETGSFGTRDRTCNVSSHGIDGCDLLCCGRGHNARAERRREKCRCVFHWCCYVSCQECTRVYDVHTCK
otic placode compatible population (hESC [3]): induction of a population of cells coexpressing SIX1 and SOX10
FP competency / FOXA2 induction (hESC [2]): not sufficient

B2: DKK-1: recombinant DKK-1, Wnt signaling inhibitor (protein, UniProt O94907 32-266, looked up)
Dickkopf-related protein 1: TLNSVLNSNAIKNLPPPLGGAAGHPGSAVSAAPGILYPGGNKYQTIDNYQPYPCAEDEECGTDEYCASPTRGGDAGVQICLACRKRRKRCMRHAMCCPGNYCKNGICVSSDQNHFRGEIEETITESFGNDHSTLDGYSRRTTLSSKMYHTKGQEGSVCLRSSDCASGLCCARHFWSKICKPVLKEGQVCTKHRRKGSHGLEIFQRCYCGEGLSCRIQKDHHQASNSSRLHTCQRH
FOXA2+ cells (hESC [2]; added along with SHH at Day1, 9 days of SHH exposure): increase
BF1 transcript (hESC [2]; [4]): more rapid rise
FOXA2 message and protein (hESC [2]; [4]): decrease

B3: Wnt-1: caudalizing factor, wingless-type MMTV integration site family, member 1 (protein, UniProt P04628 28-370, looked up)
Proto-oncogene Wnt-1: ANSSGRWWGIVNVASSTNLLTDSKSLQLVLEPSLQLLSRKQRRLIRQNPGILHSVSGGLQSAVRECKWQFRNRRWNCPTAPGPHLFGKIVNRGCRETAFIFAITSAGVTHSVARSCSEGSIESCTCDYRRRGPGGPDWHWGGCSDNIDFGRLFGREFVDSGEKGRDLRFLMNLHNNEAGRTTVFSEMRQECKCHGMSGSCTVRTCWMRLPTLRAVGDVLRDRFDGASRVLYGNRGSNRASRAELLRLEPEDPAHKPPSPHDLVYFEKSPNFCTYSGRLGTAGTAGRACNSSSPALDGCELLCCGRGHRTRTQRVTERCNCTFHWCCHVSCRNCTHTRVLHECL
midbrain FP markers CORIN and NOV (hESC derived FP): significant increase
SBE1 activity (hESC derived FP; SHH enhancer LacZ construct): induced
SBE2 activity (hESC derived FP; SHH enhancer LacZ construct): abolished
BF1 expression (hESC derived FP; in combination with SHH): dramatic reduction
FP production based on FOXA2 and Netrin-1 expression (hESC derived FP; in combination with SHH): significantly potentiated
SIX6 expression (hESC derived FP; in combination with SHH): significant reduction
FP competency / FOXA2 induction (hESC [2]): not sufficient
FP competency / FOXA2 induction (hESC [2]; listed as WNT1): no effect
